Literature values in publication PMC6092819.

Molecular target: Kv1.3 (Homo sapiens) (UniProt P22001)
UniProt P22001, sequence (P22001 whole entry): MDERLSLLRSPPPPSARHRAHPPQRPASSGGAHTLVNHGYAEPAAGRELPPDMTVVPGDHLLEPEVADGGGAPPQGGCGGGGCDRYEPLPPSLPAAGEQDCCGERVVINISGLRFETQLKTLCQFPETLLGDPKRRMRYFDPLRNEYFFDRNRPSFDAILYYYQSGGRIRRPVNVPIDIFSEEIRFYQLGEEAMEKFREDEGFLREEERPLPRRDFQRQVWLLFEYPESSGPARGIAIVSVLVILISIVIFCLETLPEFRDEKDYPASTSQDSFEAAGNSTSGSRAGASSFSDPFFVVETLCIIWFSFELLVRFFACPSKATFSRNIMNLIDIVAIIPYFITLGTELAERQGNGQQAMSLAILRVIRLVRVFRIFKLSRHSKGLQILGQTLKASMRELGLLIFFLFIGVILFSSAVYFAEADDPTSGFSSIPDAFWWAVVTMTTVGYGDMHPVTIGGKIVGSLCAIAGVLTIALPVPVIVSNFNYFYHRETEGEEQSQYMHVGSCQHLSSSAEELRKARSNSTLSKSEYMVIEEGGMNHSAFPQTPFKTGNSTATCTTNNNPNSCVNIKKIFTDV

ShK (from UniProt P29187)
Kd: 10 pM
